Key:
[1] = target: T1, heat-denatured soluble collagen type I (90 min at 98 °C) (human, UniProt P02452 179-1192; P08123 91-1104); assay: SPR, Aegyptin over immobilized heat-denatured collagen type I, two-state model; Ka1
T1 construct: also called Collagen denatured; heat-denatured collagen

[2] = target: T2, soluble collagen type III (pepsin-digested, non-fibrillar; BD Biosciences) (human, UniProt P02461 168-1196); assay: ELISA, inhibition of vWf (3 nM) binding to coated soluble collagen type III; competitor vWf
T2 construct: also called collagen III; soluble collagen III
T2 sequence: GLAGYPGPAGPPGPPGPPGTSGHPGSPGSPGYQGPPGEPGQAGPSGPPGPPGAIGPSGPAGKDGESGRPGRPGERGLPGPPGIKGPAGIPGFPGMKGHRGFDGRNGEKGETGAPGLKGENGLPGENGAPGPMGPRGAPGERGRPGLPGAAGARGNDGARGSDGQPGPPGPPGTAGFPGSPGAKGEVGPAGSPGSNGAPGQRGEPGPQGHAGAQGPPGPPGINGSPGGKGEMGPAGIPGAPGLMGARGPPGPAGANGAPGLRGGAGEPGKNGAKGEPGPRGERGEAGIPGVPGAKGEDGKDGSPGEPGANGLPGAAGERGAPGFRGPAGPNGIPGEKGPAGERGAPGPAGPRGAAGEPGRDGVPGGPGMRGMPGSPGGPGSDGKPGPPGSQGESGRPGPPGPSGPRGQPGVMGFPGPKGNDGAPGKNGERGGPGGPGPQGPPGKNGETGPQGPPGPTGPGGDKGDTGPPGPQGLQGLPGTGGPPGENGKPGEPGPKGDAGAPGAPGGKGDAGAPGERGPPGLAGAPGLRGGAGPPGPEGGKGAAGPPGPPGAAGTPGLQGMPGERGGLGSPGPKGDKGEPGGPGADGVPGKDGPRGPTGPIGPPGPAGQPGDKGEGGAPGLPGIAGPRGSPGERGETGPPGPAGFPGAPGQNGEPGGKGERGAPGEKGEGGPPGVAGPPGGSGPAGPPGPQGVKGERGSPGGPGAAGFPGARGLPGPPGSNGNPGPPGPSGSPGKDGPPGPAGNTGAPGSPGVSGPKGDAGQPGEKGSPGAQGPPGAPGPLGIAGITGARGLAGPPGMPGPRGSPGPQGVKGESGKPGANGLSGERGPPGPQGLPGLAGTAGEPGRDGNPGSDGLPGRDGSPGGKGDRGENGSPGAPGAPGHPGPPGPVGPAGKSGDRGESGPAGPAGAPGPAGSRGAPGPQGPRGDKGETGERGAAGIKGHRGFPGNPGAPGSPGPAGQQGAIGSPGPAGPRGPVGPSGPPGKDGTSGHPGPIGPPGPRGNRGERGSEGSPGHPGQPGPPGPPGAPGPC

[3] = target: T3, soluble collagen type I (pepsin-digested, non-fibrillar, triple helical; BD Biosciences) (human, UniProt P02452 179-1192; P08123 91-1104); assay: SPR at 15-40 °C, van't Hoff analysis, Aegyptin over immobilized collagen type I; value (±SE)
T3 construct: also called collagen I; monomeric type I collagen

[4] = target: T3, soluble collagen type I …; assay: SPR, Aegyptin over immobilized soluble collagen type I, 180 s at 30 µl/min, two-state model; Ka1
[5] = target: T3, soluble collagen type I …; assay: SPR, global two-state binding model, immobilized soluble collagen type I
[6] = target: T3, soluble collagen type I …; assay: SPR, C-terminus-2 (5 to 250 nM) over immobilized soluble collagen type I, two-state model
[7] = target: T3, soluble collagen type I …; assay: SPR, […]; concentration not given

T3 sequence (P02452 179-1192 limits assumed, chain 1 of 2): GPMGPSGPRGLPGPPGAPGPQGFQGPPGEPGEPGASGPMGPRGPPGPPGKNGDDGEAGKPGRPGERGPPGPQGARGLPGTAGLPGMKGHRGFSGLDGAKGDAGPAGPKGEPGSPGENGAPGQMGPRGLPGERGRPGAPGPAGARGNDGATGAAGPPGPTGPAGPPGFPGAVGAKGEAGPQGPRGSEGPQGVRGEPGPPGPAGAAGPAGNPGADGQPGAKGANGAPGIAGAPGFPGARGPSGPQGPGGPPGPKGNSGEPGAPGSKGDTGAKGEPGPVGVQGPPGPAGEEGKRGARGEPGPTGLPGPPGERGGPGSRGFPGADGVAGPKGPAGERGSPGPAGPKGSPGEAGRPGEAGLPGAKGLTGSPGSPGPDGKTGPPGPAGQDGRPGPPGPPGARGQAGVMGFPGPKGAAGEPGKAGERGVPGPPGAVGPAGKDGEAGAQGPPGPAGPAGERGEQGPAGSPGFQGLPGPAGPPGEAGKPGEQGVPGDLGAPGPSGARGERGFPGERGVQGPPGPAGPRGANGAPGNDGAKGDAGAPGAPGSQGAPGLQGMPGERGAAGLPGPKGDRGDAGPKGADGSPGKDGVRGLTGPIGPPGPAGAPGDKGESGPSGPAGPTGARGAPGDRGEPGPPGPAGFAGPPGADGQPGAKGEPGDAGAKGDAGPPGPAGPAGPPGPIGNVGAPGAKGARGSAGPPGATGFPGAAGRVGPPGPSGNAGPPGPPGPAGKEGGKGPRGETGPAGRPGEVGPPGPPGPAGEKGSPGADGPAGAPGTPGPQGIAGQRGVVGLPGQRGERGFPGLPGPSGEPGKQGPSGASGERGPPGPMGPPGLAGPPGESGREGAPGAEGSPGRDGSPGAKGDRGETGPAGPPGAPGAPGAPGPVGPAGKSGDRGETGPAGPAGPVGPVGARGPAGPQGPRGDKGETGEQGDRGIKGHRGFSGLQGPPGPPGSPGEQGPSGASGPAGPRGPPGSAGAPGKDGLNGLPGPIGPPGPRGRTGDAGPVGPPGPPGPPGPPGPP
T3 sequence (P08123 91-1104 limits assumed, chain 2 of 2): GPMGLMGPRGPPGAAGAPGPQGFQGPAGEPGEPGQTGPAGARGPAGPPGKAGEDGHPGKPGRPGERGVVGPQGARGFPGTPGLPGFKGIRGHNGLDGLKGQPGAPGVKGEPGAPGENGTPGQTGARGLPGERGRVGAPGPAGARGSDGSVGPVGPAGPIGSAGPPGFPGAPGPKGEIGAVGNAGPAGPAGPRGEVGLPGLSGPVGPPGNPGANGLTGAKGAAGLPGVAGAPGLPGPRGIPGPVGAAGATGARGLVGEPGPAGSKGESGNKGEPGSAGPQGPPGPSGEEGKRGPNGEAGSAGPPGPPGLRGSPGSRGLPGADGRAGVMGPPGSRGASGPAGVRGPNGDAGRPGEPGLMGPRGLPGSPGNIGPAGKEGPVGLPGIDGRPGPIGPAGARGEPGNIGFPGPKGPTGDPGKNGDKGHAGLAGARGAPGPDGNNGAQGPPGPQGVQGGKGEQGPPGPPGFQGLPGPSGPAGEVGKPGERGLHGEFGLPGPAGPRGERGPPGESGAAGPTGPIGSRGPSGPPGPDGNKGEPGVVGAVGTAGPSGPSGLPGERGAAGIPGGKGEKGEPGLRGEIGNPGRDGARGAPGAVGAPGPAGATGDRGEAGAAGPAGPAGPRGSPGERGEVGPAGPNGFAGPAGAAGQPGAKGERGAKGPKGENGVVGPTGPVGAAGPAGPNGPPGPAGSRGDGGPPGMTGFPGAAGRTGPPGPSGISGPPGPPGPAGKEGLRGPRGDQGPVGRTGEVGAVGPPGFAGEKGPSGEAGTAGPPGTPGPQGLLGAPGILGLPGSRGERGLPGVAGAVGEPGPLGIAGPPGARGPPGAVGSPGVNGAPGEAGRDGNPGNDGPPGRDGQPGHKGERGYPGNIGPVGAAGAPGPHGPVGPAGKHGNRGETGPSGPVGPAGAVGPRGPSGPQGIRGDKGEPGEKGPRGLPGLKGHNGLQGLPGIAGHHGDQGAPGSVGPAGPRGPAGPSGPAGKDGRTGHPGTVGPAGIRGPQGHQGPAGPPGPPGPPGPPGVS
T1 sequence (P02452 179-1192, chain 1 of 2): as the sequence (P02452 179-1192 limits assumed, chain 1 of 2) above
T1 sequence (P08123 91-1104, chain 2 of 2): as the sequence (P08123 91-1104 limits assumed, chain 2 of 2) above

B1: recombinant Aegyptin (other)
chain: RPMPEDEEPVAEGGDDDASGESEGEEETTDDAGGDGGEEENEGEEHAGDKDAGGEDTGKEENTGHDDAGEEDAGEEDAGEEDAGEEDAGEEDAEKEEGEKEDAGDDAGSDDGEEDSTGGDEGEDNAEDSKGSEKNDPADTYRQVVALLDKDTKVDHIQSEYLRSALNNDLQSEVRVPVVEAIGRIGDYSKIQGCFKSMGKDVKKVISEEEKKFKSCMSKKKSEYQCSEDSFAAAKSKLSPITSKIKSCVSSKGRHHHHHH
In the case of B1, the kon [1] is reported as 674000 M⁻¹ s⁻¹, the IC50 [2] is reported as 50 nM and the “ΔS°” value [3] is reported as 95 J/(K * mol). It also gave a kon [4] of 3.63e+06 M⁻¹ s⁻¹.

B2: C-terminus-2 of Aegyptin (137 aa) (other)
chain: GGDEGEDNAEDSKGSEKNDPADTYRQVVALLDKDTKVDHIQSEYLRSALNNDLQSEVRVPVVEAIGRIGDYSKIQGCFKSMGKDVKKVISEEEKKFKSLMSKKKSEYQCSEDSFAAAKSKLSPITSKIKSCVSSKGR
notes: also called C-terminal-2; C-terminus 2 domain
Binder B2 has a Kd [5] of 60.9 nM and a Kd [6] of roughly 60 nM.

B3: C-terminus 1 of Aegyptin (113 aa) (other)
chain: RQVVALLDKDTKVDHIQSEYLRSALNNDLQSEVRVPVVEAIGRIGDYSKIQGCFKSMGKDVKKVISEEEKKFKSCMSKKKSEYQCSEDSFAAAKSKLSPITSKIKSCVSSKGR
B3: no binding [7].
